Experimental findings from US20150258192A1, “COMPOSITIONS AND METHODS FOR PREVENTING OR TREATING CHRONIC LUNG ALLOGRAFT DYSFUNCTION (CLAD) AND IDIOPATHIC PULMONARY FIBROSIS (IPF)” (priority 2014, published 2015) are described below.

No end group written: not given here.

Holding throughout (assay): Kinase Profiling Assay
Common to all, as to type: biochemical
What all share (settings): peptide 100 μM

The target of experiment [1] is T1, MINK(h) (Homo sapiens, UniProt Q8N4C8).
T1 construct: purchased Millipore
On the procedure:
(§1) Every kinase activity measurement was conducted in duplicate.
(§2) Specifically, in these assays, a positively charged substrate is phosphorylated with a radiolabeled phosphate group from an ATP if the kinase is not inhibited by an inhibitor peptide. The positively charged substrate then is attracted to a negatively charged filter membrane, quantified with a scintillation counter, and compared to a 100% activity control.
(§3) In addition to determining the IC50 of the compound, the specificity of MK2 inhibitory peptides was assessed by examining activities of all 266 human kinases available for testing in the Millipore kinase profiling service (Table 1).

Experiment [2] concerns the target EphA7(h) (Homo sapiens, UniProt Q15375). On the procedure: as §1, §2, §3
In experiment [3] the target is Pim-2(h) (Homo sapiens, UniProt Q9P1W9). The procedure:
as §1, §2, §3

The target in experiment [4] is CHK2(h) (Homo sapiens, UniProt O96017). The procedure: as §1, §2, §3
The target of experiment [5] is T2, PrKX(h) (Homo sapiens, UniProt P51817).
T2 sequence (P51817 1-358): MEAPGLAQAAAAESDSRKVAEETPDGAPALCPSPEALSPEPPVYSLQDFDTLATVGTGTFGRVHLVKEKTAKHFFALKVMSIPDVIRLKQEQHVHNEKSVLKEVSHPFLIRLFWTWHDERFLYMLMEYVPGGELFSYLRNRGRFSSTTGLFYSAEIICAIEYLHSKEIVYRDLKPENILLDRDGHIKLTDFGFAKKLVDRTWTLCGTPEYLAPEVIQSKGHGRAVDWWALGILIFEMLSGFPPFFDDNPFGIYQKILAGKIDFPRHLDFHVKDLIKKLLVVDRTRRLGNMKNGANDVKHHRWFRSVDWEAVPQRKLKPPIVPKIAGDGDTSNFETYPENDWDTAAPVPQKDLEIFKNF
The procedure: as §1, §2, §3

The target of experiment [6] is T3, NEK6(h) (Homo sapiens, UniProt Q9HC98).
T3 construct: purchased Millipore
The procedure:
as §1, §2, §3

For experiment [7], the target named is BRK(h) (Homo sapiens, UniProt Q13882). The procedure:
as §1, §2, §3

Experiment [8] addresses T4, Met(D1246H)(h) (Homo sapiens, UniProt P08581, D1228H).
T4 construct: purchased Millipore
On the procedure:
as §1, §2, §3

Experiment [9] deals with EphA4(h) (Homo sapiens, UniProt P54764). On the procedure:
as §1, §2, §3

The target of experiment [10] is T5, MST2(h) (Homo sapiens, UniProt Q13188).
T5 construct: purchased Millipore
T5 sequence (Q13188 1-491): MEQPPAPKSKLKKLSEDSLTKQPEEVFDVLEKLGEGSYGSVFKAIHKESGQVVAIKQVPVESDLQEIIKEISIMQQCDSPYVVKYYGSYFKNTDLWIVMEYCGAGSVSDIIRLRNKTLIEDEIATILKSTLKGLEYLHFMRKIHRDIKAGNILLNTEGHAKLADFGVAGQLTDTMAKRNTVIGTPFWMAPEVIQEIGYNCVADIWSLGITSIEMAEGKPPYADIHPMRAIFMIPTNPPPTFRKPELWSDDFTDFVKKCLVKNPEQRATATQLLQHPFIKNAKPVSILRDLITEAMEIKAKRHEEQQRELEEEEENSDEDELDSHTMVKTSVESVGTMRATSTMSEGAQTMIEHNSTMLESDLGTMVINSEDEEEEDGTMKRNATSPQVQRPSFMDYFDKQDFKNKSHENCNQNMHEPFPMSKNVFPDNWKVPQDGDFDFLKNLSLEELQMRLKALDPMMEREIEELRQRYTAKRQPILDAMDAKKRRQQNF
The procedure:
as §1, §2, §3

The target of experiment [11] is T6, EphB1(h) (Homo sapiens, UniProt P54762).
T6 sequence (P54762 18-984): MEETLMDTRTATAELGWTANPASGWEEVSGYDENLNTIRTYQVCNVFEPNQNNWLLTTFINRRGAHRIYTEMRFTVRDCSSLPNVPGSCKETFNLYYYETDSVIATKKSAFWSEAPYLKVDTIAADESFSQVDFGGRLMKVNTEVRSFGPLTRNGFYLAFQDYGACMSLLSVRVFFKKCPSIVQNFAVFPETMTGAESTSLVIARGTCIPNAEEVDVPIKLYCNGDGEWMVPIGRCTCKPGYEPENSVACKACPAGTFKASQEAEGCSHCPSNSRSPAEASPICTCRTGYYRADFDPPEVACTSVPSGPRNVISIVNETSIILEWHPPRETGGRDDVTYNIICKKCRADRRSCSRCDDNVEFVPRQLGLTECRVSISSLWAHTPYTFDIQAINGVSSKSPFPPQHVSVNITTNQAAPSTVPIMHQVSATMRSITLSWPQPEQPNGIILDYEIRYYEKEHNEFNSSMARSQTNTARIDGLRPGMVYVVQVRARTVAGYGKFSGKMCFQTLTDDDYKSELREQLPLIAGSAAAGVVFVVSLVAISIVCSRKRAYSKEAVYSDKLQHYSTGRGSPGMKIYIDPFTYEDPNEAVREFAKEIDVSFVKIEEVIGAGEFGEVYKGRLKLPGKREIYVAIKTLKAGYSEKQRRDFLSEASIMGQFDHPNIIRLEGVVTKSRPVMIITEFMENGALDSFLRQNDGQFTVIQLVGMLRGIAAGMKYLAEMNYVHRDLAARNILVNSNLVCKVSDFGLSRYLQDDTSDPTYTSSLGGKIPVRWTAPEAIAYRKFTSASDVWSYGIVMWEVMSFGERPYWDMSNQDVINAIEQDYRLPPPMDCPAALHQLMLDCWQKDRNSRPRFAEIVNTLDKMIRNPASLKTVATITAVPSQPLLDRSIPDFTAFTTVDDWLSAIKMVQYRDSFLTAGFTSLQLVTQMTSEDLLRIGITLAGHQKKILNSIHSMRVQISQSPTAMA
The procedure: as §1, §2, §3

Experiment [12] addresses ACK1(h) (Homo sapiens, UniProt Q07912). The procedure:
as §1, §2, §3

In experiment [13] the target is T7, MLK1(h) (Homo sapiens, UniProt P80192).
T7 construct: purchased Millipore
On the procedure: as §1, §2, §3

The target in experiment [14] is Abl(Y253F)(h) (Homo sapiens, UniProt P00519, Y253F). On the procedure: as §1, §2, §3
In experiment [15] the target is PAK5(h) (Homo sapiens, UniProt Q9P286). On the procedure:
as §1, §2, §3

Sequence of PAK5(h) (Q9P286 whole entry): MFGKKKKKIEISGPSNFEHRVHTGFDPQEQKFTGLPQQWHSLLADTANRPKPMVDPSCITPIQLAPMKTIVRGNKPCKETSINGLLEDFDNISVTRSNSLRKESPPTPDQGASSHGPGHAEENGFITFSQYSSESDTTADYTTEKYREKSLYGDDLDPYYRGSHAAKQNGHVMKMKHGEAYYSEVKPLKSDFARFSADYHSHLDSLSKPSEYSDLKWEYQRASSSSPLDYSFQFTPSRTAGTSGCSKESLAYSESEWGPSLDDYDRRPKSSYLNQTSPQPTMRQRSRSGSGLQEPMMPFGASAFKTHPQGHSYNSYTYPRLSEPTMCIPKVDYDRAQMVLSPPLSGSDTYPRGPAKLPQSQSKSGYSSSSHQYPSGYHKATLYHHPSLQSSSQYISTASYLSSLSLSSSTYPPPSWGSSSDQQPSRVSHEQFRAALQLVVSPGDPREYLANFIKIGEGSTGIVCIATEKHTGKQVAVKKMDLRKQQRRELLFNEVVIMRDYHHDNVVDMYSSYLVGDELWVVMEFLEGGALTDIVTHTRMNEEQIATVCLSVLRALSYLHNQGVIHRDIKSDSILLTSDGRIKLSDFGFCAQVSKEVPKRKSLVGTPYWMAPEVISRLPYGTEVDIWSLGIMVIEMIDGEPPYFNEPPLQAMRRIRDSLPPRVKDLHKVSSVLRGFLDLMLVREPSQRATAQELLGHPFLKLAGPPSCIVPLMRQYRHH
T1 sequence (Q8N4C8 whole entry): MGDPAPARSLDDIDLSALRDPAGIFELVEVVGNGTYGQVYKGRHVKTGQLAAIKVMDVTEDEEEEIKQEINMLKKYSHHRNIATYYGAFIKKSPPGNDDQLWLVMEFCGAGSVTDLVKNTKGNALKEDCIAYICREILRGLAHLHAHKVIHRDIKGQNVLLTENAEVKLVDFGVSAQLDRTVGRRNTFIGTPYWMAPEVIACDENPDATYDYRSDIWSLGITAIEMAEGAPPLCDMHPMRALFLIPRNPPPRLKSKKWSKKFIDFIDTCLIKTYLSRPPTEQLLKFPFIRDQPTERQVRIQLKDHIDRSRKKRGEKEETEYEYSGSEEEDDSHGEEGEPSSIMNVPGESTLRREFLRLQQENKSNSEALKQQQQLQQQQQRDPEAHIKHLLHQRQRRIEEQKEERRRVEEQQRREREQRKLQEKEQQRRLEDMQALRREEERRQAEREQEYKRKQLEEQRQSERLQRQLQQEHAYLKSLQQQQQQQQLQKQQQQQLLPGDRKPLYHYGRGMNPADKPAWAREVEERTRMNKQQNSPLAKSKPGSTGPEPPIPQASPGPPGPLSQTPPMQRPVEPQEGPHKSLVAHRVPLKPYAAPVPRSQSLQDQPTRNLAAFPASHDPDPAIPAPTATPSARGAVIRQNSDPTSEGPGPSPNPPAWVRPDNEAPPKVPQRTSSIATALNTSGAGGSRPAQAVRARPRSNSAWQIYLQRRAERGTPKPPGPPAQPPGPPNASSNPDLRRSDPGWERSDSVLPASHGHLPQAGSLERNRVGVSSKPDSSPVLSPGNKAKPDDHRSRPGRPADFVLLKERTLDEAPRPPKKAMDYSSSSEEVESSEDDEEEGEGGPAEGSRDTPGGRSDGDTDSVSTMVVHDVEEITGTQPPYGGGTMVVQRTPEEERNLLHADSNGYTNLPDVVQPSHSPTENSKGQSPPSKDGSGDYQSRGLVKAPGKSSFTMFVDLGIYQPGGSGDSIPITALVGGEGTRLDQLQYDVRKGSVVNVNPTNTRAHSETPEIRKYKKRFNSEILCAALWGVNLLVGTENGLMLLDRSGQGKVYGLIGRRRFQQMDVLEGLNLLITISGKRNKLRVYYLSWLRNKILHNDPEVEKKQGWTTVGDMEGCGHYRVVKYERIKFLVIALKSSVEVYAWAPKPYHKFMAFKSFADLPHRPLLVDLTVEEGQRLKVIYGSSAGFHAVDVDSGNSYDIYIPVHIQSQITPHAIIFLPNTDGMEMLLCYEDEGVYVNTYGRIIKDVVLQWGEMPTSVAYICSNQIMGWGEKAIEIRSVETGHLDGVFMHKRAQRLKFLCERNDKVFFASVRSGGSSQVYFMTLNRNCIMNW
Sequence of ACK1(h) (Q07912 whole entry): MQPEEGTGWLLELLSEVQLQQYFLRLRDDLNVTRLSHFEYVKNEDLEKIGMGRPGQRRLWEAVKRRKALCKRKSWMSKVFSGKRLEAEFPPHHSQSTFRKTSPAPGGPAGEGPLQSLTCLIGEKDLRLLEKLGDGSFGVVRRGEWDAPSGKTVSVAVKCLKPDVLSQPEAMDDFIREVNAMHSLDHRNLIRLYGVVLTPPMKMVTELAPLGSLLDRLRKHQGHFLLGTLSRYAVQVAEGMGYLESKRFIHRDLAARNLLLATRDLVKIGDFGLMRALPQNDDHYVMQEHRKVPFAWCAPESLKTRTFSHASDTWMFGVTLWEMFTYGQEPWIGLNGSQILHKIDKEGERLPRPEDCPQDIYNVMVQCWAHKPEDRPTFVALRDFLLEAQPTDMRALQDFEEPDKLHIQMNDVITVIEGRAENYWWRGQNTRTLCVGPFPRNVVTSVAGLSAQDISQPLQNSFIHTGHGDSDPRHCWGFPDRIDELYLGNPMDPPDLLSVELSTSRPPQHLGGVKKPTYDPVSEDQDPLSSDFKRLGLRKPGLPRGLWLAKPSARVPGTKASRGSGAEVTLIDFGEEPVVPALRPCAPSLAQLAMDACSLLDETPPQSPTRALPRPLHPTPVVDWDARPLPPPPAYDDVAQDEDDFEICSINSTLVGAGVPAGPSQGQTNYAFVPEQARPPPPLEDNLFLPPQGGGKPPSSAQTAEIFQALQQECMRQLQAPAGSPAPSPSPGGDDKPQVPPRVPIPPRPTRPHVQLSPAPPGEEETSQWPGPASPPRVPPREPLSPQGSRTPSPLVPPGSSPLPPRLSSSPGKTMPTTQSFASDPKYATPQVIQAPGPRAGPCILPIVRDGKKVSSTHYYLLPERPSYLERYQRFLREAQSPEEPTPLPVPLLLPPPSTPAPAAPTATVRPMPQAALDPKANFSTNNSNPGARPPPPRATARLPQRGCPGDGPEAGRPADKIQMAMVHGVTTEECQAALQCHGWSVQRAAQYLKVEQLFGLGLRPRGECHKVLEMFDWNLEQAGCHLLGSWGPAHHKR
Sequence of CHK2(h) (O96017 whole entry): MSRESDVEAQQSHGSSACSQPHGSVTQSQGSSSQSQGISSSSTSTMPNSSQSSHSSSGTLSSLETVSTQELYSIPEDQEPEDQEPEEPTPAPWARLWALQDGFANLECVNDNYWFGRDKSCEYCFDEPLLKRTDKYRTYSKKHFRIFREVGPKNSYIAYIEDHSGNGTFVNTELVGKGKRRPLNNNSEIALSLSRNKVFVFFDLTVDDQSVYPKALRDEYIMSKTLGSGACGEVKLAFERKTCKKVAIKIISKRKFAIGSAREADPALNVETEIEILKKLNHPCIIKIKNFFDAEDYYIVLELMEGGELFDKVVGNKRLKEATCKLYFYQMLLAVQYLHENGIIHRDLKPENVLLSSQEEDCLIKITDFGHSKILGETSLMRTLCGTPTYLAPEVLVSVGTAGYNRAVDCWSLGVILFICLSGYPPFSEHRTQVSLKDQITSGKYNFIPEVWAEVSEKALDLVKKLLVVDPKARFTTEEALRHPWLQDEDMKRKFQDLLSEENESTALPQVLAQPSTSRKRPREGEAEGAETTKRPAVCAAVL
Sequence of EphA7(h) (Q15375 28-998): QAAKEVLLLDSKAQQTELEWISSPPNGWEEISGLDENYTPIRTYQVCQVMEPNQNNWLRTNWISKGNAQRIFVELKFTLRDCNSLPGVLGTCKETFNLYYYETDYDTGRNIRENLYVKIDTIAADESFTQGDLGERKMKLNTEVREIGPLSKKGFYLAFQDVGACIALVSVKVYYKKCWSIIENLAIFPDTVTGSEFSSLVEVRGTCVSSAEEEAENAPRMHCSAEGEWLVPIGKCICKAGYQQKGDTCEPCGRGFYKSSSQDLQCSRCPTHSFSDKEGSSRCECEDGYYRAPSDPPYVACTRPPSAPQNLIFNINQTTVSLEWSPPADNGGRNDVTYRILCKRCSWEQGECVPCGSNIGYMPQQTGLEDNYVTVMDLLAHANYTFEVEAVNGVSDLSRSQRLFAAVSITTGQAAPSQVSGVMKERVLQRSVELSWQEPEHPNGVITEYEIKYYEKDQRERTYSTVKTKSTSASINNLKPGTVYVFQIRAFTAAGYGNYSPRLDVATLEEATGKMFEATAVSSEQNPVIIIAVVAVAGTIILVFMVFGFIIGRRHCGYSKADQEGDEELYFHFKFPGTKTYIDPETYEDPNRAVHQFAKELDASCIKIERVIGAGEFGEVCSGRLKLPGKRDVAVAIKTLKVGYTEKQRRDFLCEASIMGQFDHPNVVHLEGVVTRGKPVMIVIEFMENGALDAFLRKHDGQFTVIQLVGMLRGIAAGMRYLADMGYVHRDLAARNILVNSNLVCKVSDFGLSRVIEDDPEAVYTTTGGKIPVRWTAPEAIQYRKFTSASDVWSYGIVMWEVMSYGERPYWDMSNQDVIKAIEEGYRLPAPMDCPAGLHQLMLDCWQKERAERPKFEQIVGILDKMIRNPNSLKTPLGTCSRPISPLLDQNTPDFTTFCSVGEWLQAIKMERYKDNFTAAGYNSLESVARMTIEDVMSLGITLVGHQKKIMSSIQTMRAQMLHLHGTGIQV
Sequence of Pim-2(h) (Q9P1W9 whole entry): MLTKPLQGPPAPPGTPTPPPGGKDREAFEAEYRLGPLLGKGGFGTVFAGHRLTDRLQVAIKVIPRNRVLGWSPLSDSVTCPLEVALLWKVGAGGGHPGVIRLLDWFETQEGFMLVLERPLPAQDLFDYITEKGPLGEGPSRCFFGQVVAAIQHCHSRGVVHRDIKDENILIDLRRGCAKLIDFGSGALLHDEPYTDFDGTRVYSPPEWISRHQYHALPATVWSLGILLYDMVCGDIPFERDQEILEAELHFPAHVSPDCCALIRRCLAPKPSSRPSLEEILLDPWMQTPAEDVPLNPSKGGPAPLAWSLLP

Consider KAFAKLAARLYRKALARQLGVAA [MMI-0400], for which the “% activity” value in [1] worked out at 52%; in experiment [2] it was 222%; in [3], 92%; in experiment [4], 54%; in experiment [5], 76%; in [6], 85%. Besides, the “% activity” value amounted to 18% in [7]; 68% in experiment [8]; 65% in [9]; 11% in experiment [10]; 58% in experiment [11]; 95% in [12]. The results for the “% activity” value in experiment [13] and in [14] were 33% and 78%, respectively.

As for FAKLAARLYRKALARQLGVAA [MMI-0300], the “% activity” value in experiment [1] is on record as 48%; in experiment [2] it was 159%; in experiment [3] it was 76%; in [4], 66%; in experiment [5], 61%; in experiment [6], 82%. The “% activity” value turned out to be 35% in experiment [7]; 125% in experiment [8]; 88% in experiment [9]; 19% in experiment [10]; 44% in experiment [11]; 110% in experiment [15]. In addition, the “% activity” value stood at 40% in [13] and 86% in experiment [14].

With YARAAARQARAKALARQLGVAA [MMI-0100], the “% activity” value in experiment [1] is 96%; in experiment [2], 193%; in [5], 84%; in [7], 70%; in experiment [8], 99%; in [9], 110%. Besides, the “% activity” value in experiment [10] amounted to 98%; in experiment [11], 99%; in [13], 77%.

In the case of “HRRIKAWLKKIKALARQLGVAA (Mammal) [MMI-0500]”, the “% activity” value in experiment [1] is given as 5%; in experiment [2], 189%; in [3], 46%; in experiment [4] it was 13%; in experiment [5], 57%; in experiment [6] it was 49%. Besides, the “% activity” value in experiment [7] stood at 41%; in experiment [8], 150%; in experiment [9], 48%; in experiment [10], 2%; in experiment [11], 37%; in [15], 125%. The entries for the “% activity” value in [12], in [13] and in experiment [14] were 64%, 43% and 29%, respectively.

For the sequence “YARAAARQARAKALNRQLGVA (Mammal) [MMI-0200]”, the “% activity” value in [2] worked out at 220%; in experiment [3], 74%; in [6] it was 98%; in [7] it was 127%; in experiment [8], 139%; in experiment [9] it was 127%. Also, the “% activity” value in [11] turned out to be 95%; in [15], 100%; in [12], 97%; in experiment [13] it was 84%.
